Source: patent US20080219974A1 (published 2008)
Residue numbers refer to the chain shown, from its start.

T1: His-tagged HM1.24 antigen, residues N49-A163 of the extracellular domain (human, UniProt Q10589 49-163)
T1 sequence: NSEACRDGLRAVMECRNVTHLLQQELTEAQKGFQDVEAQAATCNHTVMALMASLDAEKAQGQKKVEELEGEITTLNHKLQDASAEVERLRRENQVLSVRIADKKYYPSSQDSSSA

B1: HM1.24_H1.1 heavy chain variant with HM1.24_L4 light chain (antibody, human IgG1, kappa, V domains shown)
VH: QVQLVQSGAEVKKPGASVKVSCKASGYTFTPYWMQWVRQAPGQGLEWMGSIFPGEGDTRYSQSFQGQVTISADKSISTAYMELSRLRSDDTAVYYCARGLRRGGYYFDYWGQGTLVTVSS
VL: DIVMTQSPLSLPVTLGQPASISCKASQDVNTAVAWYLQKPGKSPKLLIYSASNRYTGVPDRITGSGSGTDFTLKISRVEAEDVGVYYCQQHYSTPFTFGSGTKLEIKR
B2: HM1.24_H1.2 heavy chain variant with HM1.24_L4 light chain (antibody, human IgG1, kappa, V domains shown)
VH: B1 VH with E55S
VL: B1 VL
B3: HM1.24_H1.3 heavy chain variant with HM1.24_L4 light chain (antibody, human IgG1, kappa, V domains shown)
VH: B1 VH with E55D, G56S
VL: B1 VL
B4: HM1.24_H1.4 heavy chain variant with HM1.24_L4 light chain (antibody, human IgG1, kappa, V domains shown)
VH: B1 VH with E55D, G56A
VL: B1 VL
B5: HM1.24_H2.1 heavy chain variant with HM1.24_L4 light chain (antibody, human IgG1, kappa, V domains shown)
VH: EVQLVESGGGLVKPGGSLRLSCAASGYTFTPYWMQWVRQAPGKGLEWMGSIFPGEGDTRYSQSFQGQVTISADKSISTAYMELSSLRSEDTAVYYCARGLRRGGYYFDYWGQGTLVTVSS
VL: B1 VL
B6: HM1.24_H2.3 heavy chain variant with HM1.24_L4 light chain (antibody, human IgG1, kappa, V domains shown)
VH: B5 VH with E55D, G56S
VL: B1 VL
B7: HM1.24_H2.4 heavy chain variant with HM1.24_L4 light chain (antibody, human IgG1, kappa, V domains shown)
VH: B5 VH with E55D, G56A
VL: B1 VL
B8: HM1.24_H0L0_IgG1_WT (antibody, V domains shown)
VH: QVQLQQSGAELARPGASVKLSCKASGYTFTPYWMQWVKQRPGQGLEWIGSIFPGDGDTRYSQKFKGKATLTADKSSSTAYMQLSILAFEDSAVYYCARGLRRGGYYFDYWGQGTTLTVSS
VL: DIVMTQSHKFMSTSVGDRVSITCKASQDVNTAVAWYQQKPGQSPKLLIYSASNRYTGVPDRITGSGSGTDFTFTISSVQAEDLALYYCQQHYSTPFTFGSGTKLEIKR
B9: HM1.24_H1L2 (antibody, human IgG1, kappa, V domains shown)
VH: B1 VH with E55D
VL: DIVMTQSPSSLSASVGDRVTITCQASQDVNTAVAWYQQKPDQSPKLLIYSASNRYTGVPDRITGSGSGTDFTLTISSLQAEDVAVYYCQQHYSTPFTFGSGTKLEIKR
B10: HM1.24_H2L2 (antibody, human IgG1, kappa, V domains shown)
VH: B5 VH with E55D
VL: B9 VL
B11: HM1.24_H0L0 (parent antibody in the flow cytometry screen of Example 3) (antibody, V domains shown)
VH: B8 VH
VL: DIVMTQSHKFMSTSVGDRVSITCKASQDVNTAVAWYQQKPGQSPKLLIYSASNRYTGVPDRITGSGSGTDFTFTISSVQAEDLALYYCQQHYSTPFTFGSGTKLEIK

What follows are binders tested against T1, His-tagged HM1.24 antigen, residues … (assay: not given).

Binder	binding result
B1	binds
B2	binds
B3	binds
B4	binds
B5	binds
B6	binds
B7	binds

Each binder was assayed against T2, Human HM1.24 on RPMI 8226 multiple myeloma cells (human, UniProt Q10589 1-161) (assay: flow cytometry on RPMI 8226 multiple myeloma cells, R-PE anti-human IgG F).
T2 sequence (Q10589 1-161 limits assumed): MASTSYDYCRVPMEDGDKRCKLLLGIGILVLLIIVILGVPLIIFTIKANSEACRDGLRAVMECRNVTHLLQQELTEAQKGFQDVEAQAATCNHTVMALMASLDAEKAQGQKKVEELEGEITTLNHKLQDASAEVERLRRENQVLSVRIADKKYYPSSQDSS

Binder	binding result
B8	binds

What follows are binders tested against T2, Human HM1.24 on RPMI 8226 multiple … (assay: flow cytometry on HM1.24+ RPMI 8226 cells).

Binder	binding result
B9	binds
B10	binds
B11	binds
